We go through 5 molecules from patent US11725220B1, “Production of fusel lactates via biocatalysis” (National Technology & Engineering Solutions of Sandia, LLC, priority 2020, dated 2023).

The conditions of data set [1]: 25° C.; cited from earlier work.
The nature of data set [2]: Kinetics reaction assay, pNPA to pNP, Michaelis-Menten model (Example Set 2). Format: biochemical. As to conditions: for specificity constant, comparison in words: FIG. 15; for vmax × 10^−6 / Km: pNPA to pNP, cell lysate 50 μg/ml protein, optimal temperature and pH of each enzyme; for Km: read-out: km × 10^−6; for kcat: turnover number, all protein detected by Bradford's reagent assumed to be the enzyme. The text has this:
(§1) Esterase activity is used to indirectly measure the esterification activity required for enzymes to produce ethyl lactate. Cleavage of the ester bond in 4-nitrophenyl acetate (pNPA) to form 4-nitrophenol (pNP) and acetic acid is used to determine the esterase activity of the enzymes. The Km and Vmax values, found by applying the Michaelis-Menten kinetics model to experimental data found at optimal pH and temperature conditions, are used to evaluate enzymatic activity. As disclosed herein, hydrolysis of the ester bond in pNPA was used to estimate the esterification activity of the enzymes.
Enzymatic activity can be characterized by calculating kinetic parameters for the enzymes considered. To calculate kinetic parameters for an enzyme, a kinetic model must be applied to the data.
In this form, only the initial reaction rate and substrate concentrations are considered—with the initial reaction rate being the average change in product concentration between the reaction initiation and the first subsequent reading. Plotting the inverse of v0 against the inverse of [S0] results in what is known as a Lineweaver-Burk plot. An example of a Lineweaver-Burk plot is seen in FIG. 2.
A linear regression of the data in such plots follows the linearized Michaelis-Menten equations. The y-intercept of the Lineweaver-Burk plot is the inverse of vmax; the slope multiplied by vmax gives the value of the km parameter. This is summarized in Equation 4: […]
Therefore, the kinetic parameters of an enzyme can be determined through the parameters obtained through a linear regression applied to linearized kinetics data. Once vmax and km are determined, they can be used to calculate the turnover number and the specificity constant. This approach utilizes experiments being performed with varying initial substrate concentrations while holding all other parameters constant.
(§2) This work involved two separate sets of examples (Generally, Example Set 1 and Example Set 2). Example Set 1 set was performed to determine the optimum temperature and pH conditions for each enzyme to catalyze the pNPA reaction. Three temperatures (22, 30, 37° C.) and three pH conditions (pH of 6, 7, 8) were tested. The temperature and pH condition which led to the highest product concentration were selected as the conditions to be used for each enzyme in Example set 2. The second set of examples was a kinetics reaction assay where reaction progress was measured at five time points (0, 15, 30, 60, 120) for six different initial pNPA concentrations (0, 25, 50, 100, 150, 200 μM).
In Example Set 2, a kinetics reaction assay was performed on the enzymes from Table 1. […] That enzymatic activity was tested for at the ideal temperature and pH conditions determined in the optimization experiment.
One deviation from the common protocols for Example Set 2 was that cell pellets had been stored in −80° C. for seven days instead of the usual 24 hours. In addition, the lysing process included more vigorous agitation.
To determine the kinetic activity for each enzyme, substrate concentration was varied and measured at different time points. In addition to testing each enzyme, a wild type E. coli PET control (see Table 1) was run at its optimal conditions. A blank containing pNPA but no enzyme was also included for each of the temperature pH combinations to be tested.
Initial pNPA concentrations were tested at 0, 25, 50, 100, 150, 200 μM. Measurements were made at 0, 15, 30, 60, and 120 minutes.
The phosphate buffer was of pH 6, 7, or 8 as determined to be best from Example Set 1. Stock solutions of pNPA were made in different concentrations such that adding 20 μl to the reaction would result in the corresponding final pNPA concentration (either 25, 50, 100, 150, or 200 μM). Cell lysate was diluted to concentrations of 250 μg/m to allow for uniformity in the volume of lysate added to each reaction. Instead of diluted lysate, each blank received an extra 200 μl of phosphate buffer. […]

A short description of data set [3]: Temperature and pH optimisation, pNPA reaction assay (Example Set 1). Format: biochemical. As to conditions: tested 22, 30, 37 °C; pH 6, 7, 8; 100 μM pNPA.
Source text: as §1, §2
Example Set 1 had the objective of determining the optimum temperature and pH conditions at which to run experiments for enzymatic activity characterization. As such, temperature and pH were the only conditions that varied in this experiment. Both were tested at three different levels which were similar to normal cell conditions: 22, 30 and 37° C. for temperature and 6, 7, and 8 for pH.
These were tested for all 8 enzymes from Table 1, as well as the wild type control, and a blank containing no enzyme.
The phosphate buffer was of 6, 7, or 8 pH, respectively. Lysate for each enzyme was diluted down to 250 μg/ml to facilitate ease of addition—each blank received an extra 100 μl of phosphate buffer instead of diluted cell lysate. The enzymatic component was added last and was the catalyst to initialize the reaction. The reactions were performed in three deep 96-well plates each of which was incubated at one of the temperature conditions. Agitation was provided by incubators shaking at 230 RPM.
Readings were made at 30 and 60 minutes following the initialization of the reaction. To make a reading, 200 μl of the reaction volume were transferred from the deep well plates to standard 96-well plates. The pNP product of the pNPA reaction assays is detected through Absorbance at a wavelength of 410 nm.
A curve was generated to convert from absorbances to pNP concentration. The relationship between a colored chemical and its absorbance is usually linear and can be used to convert absorbance values into chemical concentrations. To know how much pNP was being detected through absorbance, it was necessary to create a standard curve to obtain values for the relationship between the concentration of pNP and the absorbance of pNP. Creating a standard curve involved creating samples of different pNP concentrations. For the pNP to give color, it needed to be ionized. Accordingly, pNP was ionized in the presence of NaOH at a concentration of 0.4 g/ml. A standard curve was created by taking the absorbance of pNP at various known concentrations. […] As also seen in FIG. 5, the data (solid line) closely follows a linear pattern over the concentration range being tested for pNP. The R2 value for the linear regression is 0.9939. The formula for converting from absorbance to pNP, derived from that linear regression, is seen in Equation A1: [pNP]=(Abs+0.0244)/25.929 [A1]

A further data set deals with E. coli BL21-DE3. The experiment in a line: In vivo production of esters by engineered E. coli, culture supernatants by GC-MS (Example Set 3). The data set is classed as cell-based. To be noted: culture supernatant, M9 medium, 1 mM IPTG. The text has this:
E. coli cells were engineered through two step cloning. First, the cells (E. coli BL21-DE3, a commercially available genetic transformation-ready strain) were cloned with esterase or transferase enzymes using pET15b plasmid at NdeI/BamHI locus in the vector.
Specifically, plasmids were constructed (PT7::RBS:Gene*::PT7::RBS:pct::RBS:ldh in pET15b) and cloned in E. coli BL21-DE3 with ethanol producing plasmid (pACYDuet-Zm-pdc-Zm-adh). Cells were cultivated with high-cell density in M9 medium and induced with 1 mM IPTG.
Culture supernatants were analyzed through HPLC (for ethanol and lactate) and GC-MS (for esters). Esterase-A yielded highest ethyl lactate (3.5±1.5 mg/L) and ethyl acetate (16±8 mg/L).
FIGS. 18 and 19 show a GC-MS analysis of culture supernatants (collected after 22 h and 46 h of incubation) of mutants extracted with chloroform.

`Cc1ccccc1` [toluene]: the vapor pressure in data set [1] is 28.4 mm Hg.
On to xylene, for which, in data set [1], the vapor pressure is 8.84 mm Hg.
As for `CCOC(=O)C(C)O` (stereo not drawn) [ethyl lactate], the vapor pressure in data set [1] is 3.75 mm Hg.

B1: EEB1: esterase from Saccharomyces cerevisiae, expressed in BL21 E. coli, used as cell lysate (protein, UniProt Q02891 1-456, looked up)
Medium-chain fatty acid ethyl …: MFRSGYYPTVTPSHWGYNGTVKHVLGEKGTKSLAFRDSKRQIPLHEFVTKHVPTLKDGANFRLNSLLFTGYLQTLYLSAGDFSKKFQVFYGREIIKFSDGGVCTADWVMPEWEQTYSLNAEKASFNEKQFSNDEKATHPKGWPRLHPRTRYLSSEELEKCHSKGYSYPLVVVLHGLAGGSHEPLIRALSEDLSKVGDGKFQVVVLNARGCSRSKVTTRRIFTALHTGDVREFLNHQKALFPQRKIYAVGTSFGAAMLTNYLGEEGDNCPLNAAVALSNPWDFVHTWDKLAHDWWSNHIFSRTLTQFLTRTVKVNMNELQVPENFEVSHKPTVEKPVFYTYTRENLEKAEKFTDILEFDNLFTAPSMGLPDGLTYYRKASSINRLPNIKIPTLIINATDDPVTGENVIPYKQARENPCVLLCETDLGGHLAYLDNESNSWLTKQAAEFLGSFDELVL
modifications: cell lysate
As for B1, in data set [2], the “specificity constant, comparison in words” value is “top performing enzymes”; the “vmax × 10^−6” value is 1.34 ± 0.26 × 10^−6 molL^−1s^−1; the Michaelis constant (Km) is 3.9 ± 0.74 µM; the kcat came to 1.39 ± 0.26 s⁻¹. Moreover, in data set [3], the “Temperature giving 2nd highest conversion of pNPA to pNP” value turned out to be 30 °C, the “Temperature giving highest conversion of pNPA to pNP” value was determined as 22 °C, the “pH giving 2nd highest conversion of pNPA to pNP” value came to 8 and the “pH giving highest conversion of pNPA to pNP” value came out at 7.

B2: EstA: esterase from Pseudomonas aeruginosa, expressed in BL21 E. coli (protein, UniProt O33407 25-646, looked up)
Esterase EstA: APSPYSTLVVFGDSLSDAGQFPDPAGPAGSTSRFTNRVGPTYQNGSGEIFGPTAPMLLGNQLGIAPGDLAASTSPVNAQQGIADGNNWAVGGYRTDQIYDSITAANGSLIERDNTLLRSRDGYLVDRARQGLGADPNALYYITGGGNDFLQGRILNDVQAQQAAGRLVDSVQALQQAGARYIVVWLLPDLGLTPATFGGPLQPFASQLSGTFNAELTAQLSQAGANVIPLNIPLLLKEGMANPASFGLAADQNLIGTCFSGNGCTMNPTYGINGSTPDPSKLLFNDSVHPTITGQRLIADYTYSLLSAPWELTLLPEMAHGTLRAYQDELRSQWQADWENWQNVGQWRGFVGGGGQRLDFDSQDSAASGDGNGYNLTLGGSYRIDEAWRAGVAAGFYRQKLEAGAKDSDYRMNSYMASAFVQYQENRWWADAALTGGYLDYDDLKRKFALGGGERSEKGDTNGHLWAFSARLGYDIAQQADSPWHLSPFVSADYARVEVDGYSEKGASATALDYDDQKRSSKRLGAGLQGKYAFGSDTQLFAEYAHEREYEDDTQDLTMSLNSLPGNRFTLEGYTPQDHLNRVSLGFSQKLAPELSLRGGYNWRKGEDDTQQSVSLALSLDF
As for B2, in data set [2], the “specificity constant, comparison in words” value was “top performing enzymes”; the “vmax × 10^−6” value was 1.09 ± 0.05 × 10^−6 molL^−1s^−1; the Km stood at 4.89 ± 1.16 µM; the catalytic constant (kcat) turned out to be 1.52 ± 0.36 s⁻¹. Besides, in data set [3], the “Temperature giving 2nd highest conversion of pNPA to pNP” value amounted to 37 °C, the “Temperature giving highest conversion of pNPA to pNP” value stood at 22 °C, the “pH giving 2nd highest conversion of pNPA to pNP” value came to 8 and the “pH giving highest conversion of pNPA to pNP” value worked out at 7. Besides, in the data set on E. coli BL21-DE3, the ethyl acetate yielded stood at 16 ± 8 mg/L and the ethyl lactate yielded was 3.5 ± 1.5 mg/L.
